The values below come from patent US20220251204A1 (AstraZeneca / MedImmune, published 2022).

The target in experiment [1] is T1, human CTLA-4 expressed on cells (human, UniProt P16410 36-223).
T1 construct: also called CTLA-4 reporter cells
T1 sequence: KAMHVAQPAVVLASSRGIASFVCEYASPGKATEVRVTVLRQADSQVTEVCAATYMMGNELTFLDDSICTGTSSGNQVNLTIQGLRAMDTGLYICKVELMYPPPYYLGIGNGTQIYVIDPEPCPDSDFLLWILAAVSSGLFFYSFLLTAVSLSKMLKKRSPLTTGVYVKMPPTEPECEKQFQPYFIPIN
As to the kind of experiment: flow cytometry receptor occupancy, CHO cells expressing PD-1:CTLA-4 (40:1); free CTLA-4 detected with labeled anti-CTLA-4 mAb. In general terms: A flow cytometer gives signals particle by particle.

The target of experiment [2] is T1, human CTLA-4 expressed on cells. As to the kind of experiment: flow cytometry receptor occupancy, CHO cells expressing PD-1:CTLA-4 (40:1), combination of the anti-PD-1 and anti-CTLA-4 mAbs; free CTLA-4 detected with labeled anti-CTLA-4 mAb; label stands beside the dark-diamond curve, which crosses 50 % at about 2.5 nM.
Experiment [3] has the same target. The experiment in a line: flow cytometry receptor occupancy, CHO cells expressing PD-1:CTLA-4 (10:1); free CTLA-4 detected with labeled anti-CTLA-4 mAb.
Experiment [4] addresses T2, human PD-1 expressed on cells (human, UniProt Q15116 25-288).
T2 construct: also called CHO cells overexpressing human PD1
The experiment in a line: flow cytometry receptor occupancy, CHO cells expressing PD-1:CTLA-4 (10:1); free PD-1 detected with labeled anti-PD-1 mAb.

For experiment [5], the target named is T3, human CTLA-4 antigen (soluble) (human, UniProt P16410 36-161).
T3 construct: also called hu CTLA4; soluble CTLA-4 antigen
T3 sequence: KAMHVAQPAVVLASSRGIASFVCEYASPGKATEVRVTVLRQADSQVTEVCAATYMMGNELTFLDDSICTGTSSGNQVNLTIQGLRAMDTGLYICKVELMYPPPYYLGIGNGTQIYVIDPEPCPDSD
As to the kind of experiment: SPR, BIAcore T200; antibody captured on mouse anti-huIgG-Fab, antigen injected. Background: SPR reads the build-up and loss of mass on a sensor chip optically.
Experimental: (§1) Binding experiments were carried out using a BIAcore T200 instrument (BIAcore). To capture the antibody, mouse anti-huIgG-Fab was immobilized on a CM5 chip to a target response of 2000 RU. 100 nM of the DuetMab or mAbs were flowed at 20 μL/min for 5 min to achieve approximately 100 response units of captured antibody. Antigen were then injected serially at a flow rate of 50 μl/min for 5 min. Kinetic parameters (kₒₙ and koff) and dissociation constant (KD) were calculated from a non-linear fit using BIAevaluation 4.1 software.

Experiment [6] concerns the target T4, cynomolgus CTLA-4 (cynomolgus, UniProt G7PL88 36-161).
T4 construct: also called cyno CTLA4
T4 sequence: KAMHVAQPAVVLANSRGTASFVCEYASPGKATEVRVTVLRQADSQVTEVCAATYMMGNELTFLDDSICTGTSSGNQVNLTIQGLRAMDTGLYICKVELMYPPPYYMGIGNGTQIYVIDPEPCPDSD
The experiment is described as above.
Experimental: as §1

The target of experiment [7] is T1, human CTLA-4 expressed on cells. As to the kind of experiment: flow cytometry receptor occupancy, CHO cells expressing PD-1:CTLA-4 (10:1); free CTLA-4 detected with labeled anti-CTLA-4 mAb. This is another data set of the same source.
The target is the same in experiment [8]. The experiment is described as above. The source holds these as a separate data set.
For experiment [9] the target is unchanged. The experiment in a line: flow cytometry receptor occupancy, CHO cells expressing PD-1:CTLA-4 (40:1); free CTLA-4 detected with labeled anti-CTLA-4 mAb. The source holds these as a separate data set.
Experiment [10] has the same target. As to the kind of experiment: cell-based or functional assay.
Experiment [11] deals with T2, human PD-1 expressed on cells. As to the kind of experiment: cell-based or functional assay.
Experiment [12] addresses T1, human CTLA-4 expressed on cells. The experiment in a line: receptor occupancy on CHO cells, flow cytometry.
Experiment [13] concerns the target T5, human PD-1 antigen (soluble) (human, UniProt Q15116 25-170).
T5 construct: also called hu PD1; Biotinylated human PD-1
The experiment in a line: SPR, BIAcore T200; antibody captured on mouse anti-huIgG-Fab, antigen injected.
Experimental: as §1

For experiment [14], the target named is T6, mouse PD-1 (mouse, UniProt Q02242 25-167).
T6 construct: also called mu PD1
T6 sequence (looked up): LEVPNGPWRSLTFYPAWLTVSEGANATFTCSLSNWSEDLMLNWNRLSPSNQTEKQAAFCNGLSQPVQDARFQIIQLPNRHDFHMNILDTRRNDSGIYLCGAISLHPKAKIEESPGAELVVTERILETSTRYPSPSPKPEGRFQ
The description is as above.
Experimental: as §1

In experiment [15] the target is T7, cynomolgus PD-1 (cynomolgus, UniProt B0LAJ3 25-170).
T7 construct: also called cyno PD1
Described as above.
Experimental: as §1

Experiment [16] deals with T2, human PD-1 expressed on cells. As to the kind of experiment: flow cytometry, CHO cells expressing PD-1 only.
Experiment [17] addresses T1, human CTLA-4 expressed on cells. As to the kind of experiment: flow cytometry receptor occupancy, CHO cells expressing PD-1:CTLA-4 (40:1); free CTLA-4 detected with labeled anti-CTLA-4 mAb. This is another data set of the same source.
Experiment [18] shares this target. As to the kind of experiment: receptor occupancy on CHO cells expressing excess PD-1, flow cytometry.
Experiment [19] has the same target. The experiment in a line: flow cytometry receptor occupancy, CHO cells expressing CTLA-4 only; free CTLA-4 detected with labeled anti-CTLA-4 mAb.
Experiment [20] has the same target. As to the kind of experiment: flow cytometry, CHO cells expressing CTLA-4 only.
The target in experiment [21] is T2, human PD-1 expressed on cells. The experiment in a line: flow cytometry receptor occupancy, CHO cells expressing PD-1:CTLA-4 (10:1); free PD-1 detected with labeled anti-PD-1 mAb. The source holds these as a separate data set.
Experiment [22] shares this target. As to the kind of experiment: flow cytometry receptor occupancy, CHO cells expressing PD-1:CTLA-4 (40:1); free PD-1 detected with labeled anti-PD-1 mAb.

T7 sequence (B0LAJ3 entry or part of it limits assumed): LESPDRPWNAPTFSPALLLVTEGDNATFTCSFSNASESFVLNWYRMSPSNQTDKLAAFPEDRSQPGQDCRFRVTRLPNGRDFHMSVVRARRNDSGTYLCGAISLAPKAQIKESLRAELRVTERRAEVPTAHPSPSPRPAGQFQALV
T2 sequence (Q15116 25-288 limits assumed): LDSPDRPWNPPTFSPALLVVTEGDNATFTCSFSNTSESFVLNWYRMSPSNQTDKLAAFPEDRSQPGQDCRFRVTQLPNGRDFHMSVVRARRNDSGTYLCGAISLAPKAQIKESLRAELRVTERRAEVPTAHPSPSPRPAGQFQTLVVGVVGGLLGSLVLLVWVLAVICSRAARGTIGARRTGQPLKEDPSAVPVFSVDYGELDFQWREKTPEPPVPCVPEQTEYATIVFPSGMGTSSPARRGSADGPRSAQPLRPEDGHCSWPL
T5 sequence (Q15116 25-170 limits assumed): as the sequence (B0LAJ3 entry or part of it limits assumed) above, with E2D, A10P, L19V, A35T, R75Q, A144T counted along it

B1: Anti-CTLA-4 IgG (antibody, V domains shown)
VH: QVQLVESGGGVVQPGRSLRLSCAASGFTFSSYGMHWVRQAPGKGLEWVAVIWYDGSNKYYADSVKGRFTISRDNSKNTLYLQMNSLRAEDTAVYYCARDPRGATLYYYYYGMDVWGQGTTVTVSS
VL: DIQMTQSPSSLSASVGDRVTITCRASQSINSYLDWYQQKPGKAPKLLIYAASSLQSGVPSRFSGSGSGTDFTLTISSLQPEDFATYYCQQYYSTPFTFGPGTKVEIK
notes: also called tremelimumab; MEDI1123
Regarding B1, the figures for the IC50 in [1], in experiment [2] and in experiment [3] were 4.4 nM, 2.4 nM and 5 nM, respectively. Moreover, in experiment [4], the binding result is recorded as “no binding (tested: about 200 nM)”. In addition, the Kd – broadly, the free concentration of one partner at which half of the binding sites on the other are occupied at equilibrium, for simple one-to-one binding – in [5] was found to be 0.48 nM; in [6] it was 0.59 nM. Also, the dissociation rate constant (koff) (commonly a measure of how fast the partners let go of each other) was 0.000304 s⁻¹ in experiment [5] and 0.000674 s⁻¹ in [6]. The values for the kon in experiment [5] and in [6] were 633000 M⁻¹ s⁻¹ and 1.15e+06 M⁻¹ s⁻¹, respectively.

B2: PD-1/CTLA-4 DuetMab (bispecific antibody, human IgG1, kappa, lambda)
heavy 1: EVQLVESGGGLVQPGGSLRLSCAASGFTFSDYGMHWVRQAPGKGLEWVAYISSGSYTIYSADSVKGRFTISRDNAKNSLYLQMNSLRAEDTAVYYCARRAPNSFYEYYFDYWGQGTTVTVSSASTKGPSVFPLAPSSKSTSGGTAALGCLVKDYFPEPVTVSWNSGALTSGVHTFPAVLQSSGLYSLSSVVTVPSSSLGTQTYICNVNHKPSNTKVDKRVEPKSCDKTHTCPPCPAPEFEGGPSVFLFPPKPKDTLMISRTPEVTCVVVDVSHEDPEVKFNWYVDGVEVHNAKTKPREEQYNSTYRVVSVLTVLHQDWLNGKEYKCKVSNKALPASIEKTISKAKGQPREPQVCTLPPSREEMTKNQVSLSCAVKGFYPSDIAVEWESNGQPENNYKTTPPVLDSDGSFFLVSKLTVDKSRWQQGNVFSCSVMHEALHNHYTQKSLSLSPGK
light 1: QIVLTQSPATLSLSPGERATLSCSASSKHTNLYWSRHMYWYQQKPGQAPRLLIYLTSNRATGIPARFSGSGSGTDFTLTISSLEPEDFAVYYCQQWSSNPFTFGQGTKLEIKRTVAAPSVFIFPPSDEQLKSGTASVVCLLNNFYPREAKVQWKVDNALQSGNSQESVTEQDSKDSTYSLSSTLTLSKADYEKHKVYACEVTHQGLSSPVTKSFNRGEC
heavy 2: not shown
light 2: DIQMTQSPSSLSASVGDRVTITCRASQSINSYLDWYQQKPGKAPKLLIYAASSLQSGVPSRFSGSGSGTDFTLTISSLQPEDFATYYCQQYYSTPFTFGPGTKVEIKGQPKAAPSVTLFPPCSEELQANKATLVCLISDFYPGAVTVAWKADSSPVKAGVETTTPSKQSNNKYAASSYLSLTPEQWKSHRSYSCQVTHEGSTVEKTVAPTEVS
notes: also called DuetMab PD-1/CTLA-4; PD-1/CTLA-4 DuetMab bispecific antibody; copies: 1 + 1 + 1 + 1
For B2, the IC50 – broadly, the midpoint of a concentration-inhibition curve – in experiment [7] was found to be 0.38 nM; in experiment [8], 0.38 nM; in experiment [9], 0.01 nM; in experiment [17] it was 0.01 nM; in experiment [19], 4.6 nM; in [21], 12.2 nM. The IC50 in experiment [22] is 14.4 nM. Moreover, the “fold decrease in CTLA-4 reporter gene assay, potency” value in experiment [10] is roughly 16 fold. The “fold decrease in PD-1 reporter gene assay, potency” value in experiment [11] was roughly 9 fold. For the same molecule, the “fold lower concentration to saturate CTLA-4, against cells expressing only CTLA-4” value in experiment [12] was roughly 500 fold. Besides, the dissociation constant Kd in experiment [13] was found to be 0.81 nM; in [5] it was 0.62 nM; in [14], 496 nM; in [6], 0.55 nM; in [15], 0.44 nM. Also, the off-rate constant (koff) turned out to be 0.000236 s⁻¹ in experiment [13]; 0.000421 s⁻¹ in [5]; 0.0693 s⁻¹ in experiment [14]; 0.000634 s⁻¹ in [6]; 0.000215 s⁻¹ in experiment [15]. Further, the kon (commonly the rate constant with which the complex forms) is 295000 M⁻¹ s⁻¹ in experiment [13]; 684000 M⁻¹ s⁻¹ in experiment [5]; 140000 M⁻¹ s⁻¹ in experiment [14]; 1.14e+06 M⁻¹ s⁻¹ in [6]; 490000 M⁻¹ s⁻¹ in experiment [15]. The 50% effective concentration (EC50 (read off the curve)) in [16] and in [20] was roughly 4 nM throughout. Moreover, in experiment [18], the “fold lower concentration to saturate CTLA-4, against a combination of the monoclonal antibodies” value is roughly 250 fold.
